# T1: Human LRRC15 Protein, His Tag (Acro Biosystems) (human, UniProt Q8TF66 22-538, limits assumed)
# T1 construct: not shown: His tag
# T1 sequence (looked up): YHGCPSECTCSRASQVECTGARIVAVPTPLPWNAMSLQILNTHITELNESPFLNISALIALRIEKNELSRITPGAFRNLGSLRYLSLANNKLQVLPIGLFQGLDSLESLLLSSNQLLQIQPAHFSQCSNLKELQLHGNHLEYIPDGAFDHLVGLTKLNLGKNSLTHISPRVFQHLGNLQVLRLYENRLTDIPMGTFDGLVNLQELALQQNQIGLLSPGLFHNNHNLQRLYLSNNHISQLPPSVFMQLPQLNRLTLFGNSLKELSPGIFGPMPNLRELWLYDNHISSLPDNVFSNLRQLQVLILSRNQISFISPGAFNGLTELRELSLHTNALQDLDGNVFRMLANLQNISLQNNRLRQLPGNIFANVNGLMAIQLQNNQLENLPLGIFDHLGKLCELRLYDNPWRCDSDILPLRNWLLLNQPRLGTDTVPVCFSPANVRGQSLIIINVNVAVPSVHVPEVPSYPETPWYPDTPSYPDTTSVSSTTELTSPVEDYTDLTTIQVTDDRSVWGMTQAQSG
# Biological target: T1, Human LRRC15 Protein, His Tag (Acro …)
# Assay: BLI; dissociation pH 7.4 black, pH 5.4 grey [D00016 FIG. 3B]
row,Binder,binding result
1,"MYT7935 (antibody, V domains shown, also called 24D9 VL N33H) VH: QQQLVESGGGLVKPGASLTLTCKASGFSFSGSYWICWVRQAPGKGLEWIGCINGGSLDITYYASWAKGRFTISKASSTTVTLQKTSLTAADTATYFCASDTSYTAYGNFYFNLWGPGTLVTVSS VL: AQVLTQTASPVSAAVGGTVTINCQSSQSVLNNHWLAWYQQKPGQPPKLLIYDASSLASGVPSRFKGSGSGTQFTLTISDLESDDAATYYCQGEFSCGSADCNAFGGGTEVVVKG",binds
2,"MYT7937 (antibody, V domains shown, tested as culture supernatant; also called 24D9 VL L35H) VH: QQQLVESGGGLVKPGASLTLTCKASGFSFSGSYWICWVRQAPGKGLEWIGCINGGSLDITYYASWAKGRFTISKASSTTVTLQKTSLTAADTATYFCASDTSYTAYGNFYFNLWGPGTLVTVSS VL: AQVLTQTASPVSAAVGGTVTINCQSSQSVLNNNWHAWYQQKPGQPPKLLIYDASSLASGVPSRFKGSGSGTQFTLTISDLESDDAATYYCQGEFSCGSADCNAFGGGTEVVVKG",binds
3,"MYT7940 (antibody, V domains shown, tested as culture supernatant; also called 24D9 VL A53H) VH: QQQLVESGGGLVKPGASLTLTCKASGFSFSGSYWICWVRQAPGKGLEWIGCINGGSLDITYYASWAKGRFTISKASSTTVTLQKTSLTAADTATYFCASDTSYTAYGNFYFNLWGPGTLVTVSS VL: AQVLTQTASPVSAAVGGTVTINCQSSQSVLNNNWLAWYQQKPGQPPKLLIYDHSSLASGVPSRFKGSGSGTQFTLTISDLESDDAATYYCQGEFSCGSADCNAFGGGTEVVVKG",binds
4,"MYT7941 (antibody, V domains shown, tested as culture supernatant; also called 24D9 VL S54H) VH: QQQLVESGGGLVKPGASLTLTCKASGFSFSGSYWICWVRQAPGKGLEWIGCINGGSLDITYYASWAKGRFTISKASSTTVTLQKTSLTAADTATYFCASDTSYTAYGNFYFNLWGPGTLVTVSS VL: AQVLTQTASPVSAAVGGTVTINCQSSQSVLNNNWLAWYQQKPGQPPKLLIYDAHSLASGVPSRFKGSGSGTQFTLTISDLESDDAATYYCQGEFSCGSADCNAFGGGTEVVVKG",binds

# Results, then the binder that gave them:
row,binding result,Binder
1,no binding (tested: 50 nM LRRC15),"MYT7939 (antibody, V domains shown, tested as culture supernatant; also called 24D9 VL D52H) VH: QQQLVESGGGLVKPGASLTLTCKASGFSFSGSYWICWVRQAPGKGLEWIGCINGGSLDITYYASWAKGRFTISKASSTTVTLQKTSLTAADTATYFCASDTSYTAYGNFYFNLWGPGTLVTVSS VL: AQVLTQTASPVSAAVGGTVTINCQSSQSVLNNNWLAWYQQKPGQPPKLLIYHASSLASGVPSRFKGSGSGTQFTLTISDLESDDAATYYCQGEFSCGSADCNAFGGGTEVVVKG"
2,no binding (tested: 50 nM LRRC15),"MYT7938 (antibody, V domains shown, tested as culture supernatant; also called 24D9 VL A36H) VH: QQQLVESGGGLVKPGASLTLTCKASGFSFSGSYWICWVRQAPGKGLEWIGCINGGSLDITYYASWAKGRFTISKASSTTVTLQKTSLTAADTATYFCASDTSYTAYGNFYFNLWGPGTLVTVSS VL: AQVLTQTASPVSAAVGGTVTINCQSSQSVLNNNWLHWYQQKPGQPPKLLIYDASSLASGVPSRFKGSGSGTQFTLTISDLESDDAATYYCQGEFSCGSADCNAFGGGTEVVVKG"
3,no binding (tested: 50 nM LRRC15),"MYT7936 (antibody, V domains shown, tested as culture supernatant; also called 24D9 VL W34H) VH: QQQLVESGGGLVKPGASLTLTCKASGFSFSGSYWICWVRQAPGKGLEWIGCINGGSLDITYYASWAKGRFTISKASSTTVTLQKTSLTAADTATYFCASDTSYTAYGNFYFNLWGPGTLVTVSS VL: AQVLTQTASPVSAAVGGTVTINCQSSQSVLNNNHLAWYQQKPGQPPKLLIYDASSLASGVPSRFKGSGSGTQFTLTISDLESDDAATYYCQGEFSCGSADCNAFGGGTEVVVKG"
4,binds,"MYT7942 (antibody, V domains shown, tested as culture supernatant; also called 24D9 VL S55H) VH: QQQLVESGGGLVKPGASLTLTCKASGFSFSGSYWICWVRQAPGKGLEWIGCINGGSLDITYYASWAKGRFTISKASSTTVTLQKTSLTAADTATYFCASDTSYTAYGNFYFNLWGPGTLVTVSS VL: AQVLTQTASPVSAAVGGTVTINCQSSQSVLNNNWLAWYQQKPGQPPKLLIYDASHLASGVPSRFKGSGSGTQFTLTISDLESDDAATYYCQGEFSCGSADCNAFGGGTEVVVKG"
